In CN116265487A:

Target: 重组蛋白hVEGF-Fc (human)
Assay: cell-based or functional assay

Chain of 重组蛋白hVEGF-Fc (human) (chain, as listed by the source limits assumed): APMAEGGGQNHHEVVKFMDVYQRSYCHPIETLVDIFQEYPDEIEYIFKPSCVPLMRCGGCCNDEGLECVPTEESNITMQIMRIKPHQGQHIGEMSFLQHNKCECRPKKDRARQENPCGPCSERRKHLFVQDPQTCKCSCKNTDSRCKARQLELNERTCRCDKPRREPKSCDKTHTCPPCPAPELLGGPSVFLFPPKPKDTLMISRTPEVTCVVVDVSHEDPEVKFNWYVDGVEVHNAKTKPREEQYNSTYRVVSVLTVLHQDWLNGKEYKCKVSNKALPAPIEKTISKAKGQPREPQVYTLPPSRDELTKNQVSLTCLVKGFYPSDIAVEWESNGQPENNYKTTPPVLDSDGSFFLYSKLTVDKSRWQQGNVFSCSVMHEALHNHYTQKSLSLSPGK

Faricimab (bispecific antibody)
中和VEGF活性IC 50: 0.582 nM
